Assay [1] addresses gp120 of HIV-1 primary isolate BR004 (clade C) (HIV-1 strain BR004). Nature of the assay: cell-based or functional assay.
Assay [2] has as its target gp120 of HIV-1 primary isolate SF-162 (clade B) (HIV-1 strain SF-162). Nature of the assay: cell-based or functional assay.

Turning to IgG clone b12 (antibody), in assay [1], the IC50, HIV-1 neutralization (p24, PBMC hosts) (µg Ab fragment/ml) stood at 9 and the IC90, HIV-1 neutralization (p24, PBMC hosts) (µg Ab fragment/ml) turned out to be 333. In assay [2], this substance came in with an IC50, HIV-1 neutralization (p24, PBMC hosts) (µg Ab fragment/ml) of 1.1 and an IC90, HIV-1 neutralization (p24, PBMC hosts) (µg Ab fragment/ml) of 14.1.

These data come from patent publication US8246957.
